Assay results published in publication PMC11574045, “A cofactor-induced repressive type of transcription factor condensation can be induced by synthetic peptides to suppress tumorigenesis” (The EMBO Journal, 2024).

B1: IRF9 (protein, UniProt Q00978 1-393, looked up)
Interferon regulatory factor 9: MASGRARCTRKLRNWVVEQVESGQFPGVCWDDTAKTMFRIPWKHAGKQDFREDQDAAFFKAWAIFKGKYKEGDTGGPAVWKTRLRCALNKSSEFKEVPERGRMDVAEPYKVYQLLPPGIVSGQPGTQKVPSKRQHSSVSSERKEEEDAMQNCTLSPSVLQDSLNNEEEGASGGAVHSDIGSSSSSSSPEPQEVTDTTEAPFQGDQRSLEFLLPPEPDYSLLLTFIYNGRVVGEAQVQSLDCRLVAEPSGSESSMEQVLFPKPGPLEPTQRLLSQLERGILVASNPRGLFVQRLCPIPISWNAPQAPPGPGPHLLPSNECVELFRTAYFCRDLVRYFQGLGPPPKFQVTLNFWEESHGSSHTPQNLITVKMEQAFARYLLEQTPEQQAAILSLV
B2: LASS3 (protein, UniProt Q8IU89 1-383, looked up)
Ceramide synthase 3: MFWTFKEWFWLERFWLPPTIKWSDLEDHDGLVFVKPSHLYVTIPYAFLLLIIRRVFEKFVASPLAKSFGIKETVRKVTPNTVLENFFKHSTRQPLQTDIYGLAKKCNLTERQVERWFRSRRNQERPSRLKKFQEACWRFAFYLMITVAGIAFLYDKPWLYDLWEVWNGYPKQPLLPSQYWYYILEMSFYWSLLFRLGFDVKRKDFLAHIIHHLAAISLMSFSWCANYIRSGTLVMIVHDVADIWLESAKMFSYAGWTQTCNTLFFIFSTIFFISRLIVFPFWILYCTLILPMYHLEPFFSYIFLNLQLMILQVLHLYWGYYILKMLNRCIFMKSIQDVRSDDEDYEEEEEEEEEEATKGKEMDCLKNGLRAERHLIPNGQHGH
B3: LEF1 (protein, UniProt Q9UJU2 1-399, looked up)
Lymphoid enhancer-binding …: MPQLSGGGGGGGGDPELCATDEMIPFKDEGDPQKEKIFAEISHPEEEGDLADIKSSLVNESEIIPASNGHEVARQAQTSQEPYHDKAREHPDDGKHPDGGLYNKGPSYSSYSGYIMMPNMNNDPYMSNGSLSPPIPRTSNKVPVVQPSHAVHPLTPLITYSDEHFSPGSHPSHIPSDVNSKQGMSRHPPAPDIPTFYPLSPGGVGQITPPLGWQGQPVYPITGGFRQPYPSSLSVDTSMSRFSHHMIPGPPGPHTTGIPHPAIVTPQVKQEHPHTDSDLMHVKPQHEQRKEQEPKRPHIKKPLNAFMLYMKEMRANVVAECTLKESAAINQILGRRWHALSREEQAKYYELARKERQLHMQLYPGWSARDNYGKKKKRKREKLQESASGTGPRMTAAYI
B4: LASS6 (protein, UniProt Q6ZMG9 1-384, looked up)
Ceramide synthase 6: MAGILAWFWNERFWLPHNVTWADLKNTEEATFPQAEDLYLAFPLAFCIFMVRLIFERFVAKPCAIALNIQANGPQIAPPNAILEKVFTAITKHPDEKRLEGLSKQLDWDVRSIQRWFRQRRNQEKPSTLTRFCESMWRFSFYLYVFTYGVRFLKKTPWLWNTRHCWYNYPYQPLTTDLHYYYILELSFYWSLMFSQFTDIKRKDFGIMFLHHLVSIFLITFSYVNNMARVGTLVLCLHDSADALLEAAKMANYAKFQKMCDLLFVMFAVVFITTRLGIFPLWVLNTTLFESWEIVGPYPSWWVFNLLLLLVQGLNCFWSYLIVKIACKAVSRGKVSKDDRSDIESSSDEEDSEPPGKNPHTATTTNGTSGTNGYLLTGSCSMDD
B5: LHX2 (protein, UniProt P50458 1-406, looked up)
LIM/homeobox protein Lhx2: MLFHSLSGPEVHGVIDEMDRRAKSEAPAISSAIDRGDTETTMPSISSDRAALCAGCGGKISDRYYLLAVDKQWHMRCLKCCECKLNLESELTCFSKDGSIYCKEDYYRRFSVQRCARCHLGISASEMVMRARDLVYHLNCFTCTTCNKMLTTGDHFGMKDSLVYCRLHFEALLQGEYPAHFNHADVAAAAAAAAAAKSAGLGAAGANPLGLPYYNGVGTVQKGRPRKRKSPGPGADLAAYNAALSCNENDAEHLDRDQPYPSSQKTKRMRTSFKHHQLRTMKSYFAINHNPDAKDLKQLAQKTGLTKRVLQVWFQNARAKFRRNLLRQENTGVDKSTDAALQTGTPSGPASELSNASLSPSSTPTTLTDLTSPTLPTVTSVLTSVPGNLEGHEPHSPSQTTLTNLF
B6: LASS4 (protein, UniProt Q9HA82 1-394, looked up)
Ceramide synthase 4: MLSSFNEWFWQDRFWLPPNVTWTELEDRDGRVYPHPQDLLAALPLALVLLAMRLAFERFIGLPLSRWLGVRDQTRRQVKPNATLEKHFLTEGHRPKEPQLSLLAAQCGLTLQQTQRWFRRRRNQDRPQLTKKFCEASWRFLFYLSSFVGGLSVLYHESWLWAPVMCWDRYPNQTLKPSLYWWYLLELGFYLSLLIRLPFDVKRKDFKEQVIHHFVAVILMTFSYSANLLRIGSLVLLLHDSSDYLLEACKMVNYMQYQQVCDALFLIFSFVFFYTRLVLFPTQILYTTYYESISNRGPFFGYYFFNGLLMLLQLLHVFWSCLILRMLYSFMKKGQMEKDIRSDVEESDSSEEAAAAQEPLQLKNGAAGGPRPAPTDGPRSRVAGRLTNRHTTAT
B7: JUP (protein, UniProt P14923 1-745, looked up)
Junction plakoglobin: MEVMNLMEQPIKVTEWQQTYTYDSGIHSGANTCVPSVSSKGIMEEDEACGRQYTLKKTTTYTQGVPPSQGDLEYQMSTTARAKRVREAMCPGVSGEDSSLLLATQVEGQATNLQRLAEPSQLLKSAIVHLINYQDDAELATRALPELTKLLNDEDPVVVTKAAMIVNQLSKKEASRRALMGSPQLVAAVVRTMQNTSDLDTARCTTSILHNLSHHREGLLAIFKSGGIPALVRMLSSPVESVLFYAITTLHNLLLYQEGAKMAVRLADGLQKMVPLLNKNNPKFLAITTDCLQLLAYGNQESKLIILANGGPQALVQIMRNYSYEKLLWTTSRVLKVLSVCPSNKPAIVEAGGMQALGKHLTSNSPRLVQNCLWTLRNLSDVATKQEGLESVLKILVNQLSVDDVNVLTCATGTLSNLTCNNSKNKTLVTQNSGVEALIHAILRAGDKDDITEPAVCALRHLTSRHPEAEMAQNSVRLNYGIPAIVKLLNQPNQWPLVKATIGLIRNLALCPANHAPLQEAAVIPRLVQLLVKAHQDAQRHVAAGTQQPYTDGVRMEEIVEGCTGALHILARDPMNRMEIFRLNTIPLFVQLLYSSVENIQRVAAGVLCELAQDKEAADAIDAEGASAPLMELLHSRNEGTATYAAAVLFRISEDKNPDYRKRVSVELTNSLFKHDPAAWEAAQSMIPINEPYGDDMDATYRPMYSSDVPLDPLEMHMDMDGDYPIDTYSDGLRPPYPTADHMLA
B8: JDP2 (protein, UniProt P97875 1-163, looked up)
Jun dimerization protein 2: MMPGQIPDPSVTAGSLPGLGPLTGLPSSALTTEELKYADIRNIGAMIAPLHFLEVKLGKRPQPVKSELDEEEERRKRRREKNKVAAARCRNKKKERTEFLQRESERLELMNAELKTQIEELKLERQQLILMLNRHRPTCIVRTDSVRTPESEGNPLLEQLDKK
B9: JADE2 (protein, UniProt Q9NQC1 1-790, looked up)
E3 ubiquitin-protein ligase …: MEEKRRKYSISSDNSDTTDSHATSTSASRCSKLPSSTKSGWPRQNEKKPSEVFRTDLITAMKIPDSYQLSPDDYYILADPWRQEWEKGVQVPAGAEAIPEPVVRILPPLEGPPAQASPSSTMLGEGSQPDWPGGSRYDLDEIDAYWLELINSELKEMERPELDELTLERVLEELETLCHQNMARAIETQEGLGIEYDEDVVCDVCRSPEGEDGNEMVFCDKCNVCVHQACYGILKVPTGSWLCRTCALGVQPKCLLCPKRGGALKPTRSGTKWVHVSCALWIPEVSIGCPEKMEPITKISHIPASRWALSCSLCKECTGTCIQCSMPSCVTAFHVTCAFDHGLEMRTILADNDEVKFKSFCQEHSDGGPRNEPTSEPTEPSQAGEDLEKVTLRKQRLQQLEEDFYELVEPAEVAERLDLAEALVDFIYQYWKLKRKANANQPLLTPKTDEVDNLAQQEQDVLYRRLKLFTHLRQDLERVRNLCYMVTRRERTKHAICKLQEQIFHLQMKLIEQDLCRGLSTSFPIDGTFFNSWLAQSVQITAENMAMSEWPLNNGHREDPAPGLLSEELLQDEETLLSFMRDPSLRPGDPARKARGRTRLPAKKKPPPPPPQDGPGSRTTPDKAPKKTWGQDAGSGKGGQGPPTRKPPRRTSSHLPSSPAAGDCPILATPESPPPLAPETPDEAASVAADSDVQVPGPAASPKPLGRLRPPRESKVTRRLPGARPDAGMGPPSAVAERPKVSLHFDTETDGYFSDGEMSDSDVEAEDGGVQRGPREAGAEEVVRMGVLAS
B10: JUNB (protein, UniProt P17275 1-347, looked up)
Transcription factor JunB: MCTKMEQPFYHDDSYTATGYGRAPGGLSLHDYKLLKPSLAVNLADPYRSLKAPGARGPGPEGGGGGSYFSGQGSDTGASLKLASSELERLIVPNSNGVITTTPTPPGQYFYPRGGGSGGGAGGAGGGVTEEQEGFADGFVKALDDLHKMNHVTPPNVSLGATGGPPAGPGGVYAGPEPPPVYTNLSSYSPASASSGGAGAAVGTGSSYPTTTISYLPHAPPFAGGHPAQLGLGRGASTFKEEPQTVPEARSRDATPPVSPINMEDQERIKVERKRLRNRLAATKCRKRKLERIARLEDKVKTLKAENAGLSSTAGLLREQVAQLKQKVMTHVSNGCQLLLGVKGHAF
B11: LBX2 (protein, UniProt Q9WUN8 1-195, looked up)
Transcription factor LBX2: MNSVHQRRTPFSIADILGPSMVPEAPSAPQLPEAGPDPASPLCALEELASKTFLGHSPRATPQPSEGRAAPEAPPGPGAGVRRRRKSRTAFTAQQVLELERRFVFQKYLAPSERDGLAARLGLANAQVVTWFQNRRAKLKRDVEEMRADVASLCGLSPGVLCYPALPDSTSSPDPGPSGPDSEPNLSDEEIQVDD
B12: KLRG1 (protein, UniProt Q96E93 1-195, looked up)
Killer cell lectin-like …: MTDSVIYSMLELPTATQAQNDYGPQQKSSSSRPSCSCLVAIALGLLTAVLLSVLLYQWILCQGSNYSTCASCPSCPDRWMKYGNHCYYFSVEEKDWNSSLEFCLARDSHLLVITDNQEMSLLQVFLSEAFCWIGLRNNSGWRWEDGSPLNFSRISSNSFVQTCGAINKNGLQASSCEVPLHWVCKKCPFADQALF
B13: ARRB1 (protein, UniProt P49407 1-418, looked up)
Beta-arrestin-1: MGDKGTRVFKKASPNGKLTVYLGKRDFVDHIDLVDPVDGVVLVDPEYLKERRVYVTLTCAFRYGREDLDVLGLTFRKDLFVANVQSFPPAPEDKKPLTRLQERLIKKLGEHAYPFTFEIPPNLPCSVTLQPGPEDTGKACGVDYEVKAFCAENLEEKIHKRNSVRLVIRKVQYAPERPGPQPTAETTRQFLMSDKPLHLEASLDKEIYYHGEPISVNVHVTNNTNKTVKKIKISVRQYADICLFNTAQYKCPVAMEEADDTVAPSSTFCKVYTLTPFLANNREKRGLALDGKLKHEDTNLASSTLLREGANREILGIIVSYKVKVKLVVSRGGLLGDLASSDVAVELPFTLMHPKPKEEPPHREVPENETPVDTNLIELDTNDDDIVFEDFARQRLKGMKDDKEEEEDGTGSPQLNNR

Tested on: HEK293FT cells transfected with TF library
Assay: Screening of TF condensates based on fluorescent puncta
Type: cell-based
Details: Figure 1B numerical data; TF library screen, one value per transcriptional factor
How it was run: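 TF plasmids (final 1.6 μg/ml) reverse-transfected with PEI (4.8 μg/ml) into HEK293FT cells; after 60 h, cells cultured ±glucose for 12 h, fixed in 4% PFA and immunostained for Flag or GAL4 tags with Alexa 488 secondaries. Puncta scored by automated imaging of 50 random fields per well.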

Molecule	Z score of condensed fraction
B1	1.05
B2	-1.783
B3	0.2503
B4	-0.6196
B5	0.8007
B6	-0.3767
B7	-0.6246
B8	-1.182
B9	-1.0906
B10	-0.9915
B11	-0.9162
B12	2.376
B13	0.4258
